In US20110184152A1 (published 2011):
Residue numbers refer to the chain shown, from its start. Names and notes keep the numbering of the source. Blank lines part the entries; values can stand above or below the binder they belong to.

Legend:
IL-1β = biological target: T1, IL-1β; experiment: SPR (Biacore), construct captured, IL-1β injected
T1 construct: also called IL-1 beta
Procedure: (§1) Covalent immobilisation of the capture antibody was achieved by standard amine coupling chemistry.
Kinetic parameters were determined by simultaneous global-fitting of the resulting sensorgrams to a standard 1:1 binding model using Biacore T100 Evaluation software.

human serum albumin [1] = biological target: T2, human serum albumin (human, UniProt P02768 25-609); experiment: SPR (Biacore), construct captured, HSA injected
T2 construct: also called HSA; HumanSA

mouse serum albumin [2] = biological target: T3, mouse serum albumin (mouse, UniProt P07724 25-608); experiment: SPR (Biacore), purified construct
T3 construct: also called MSA; MurineSA

human serum albumin [3] = biological target: T2, human serum albumin; experiment: SPR (BIAcore)
rat serum albumin = biological target: T4, rat serum albumin (rat, UniProt P02770 25-608); experiment: affinity as humanised IgG; method not named
T4 construct: also called RatSA

human serum albumin [4] = biological target: T2, human serum albumin; experiment: affinity as humanised IgG; method not named
mouse serum albumin [5] = biological target: T3, mouse serum albumin; experiment: affinity as humanised IgG; method not named
human serum albumin [6] = biological target: T2, human serum albumin; experiment: SPR (Biacore), running buffer pH5.5; pH 5.5
Source text: as §1

human serum albumin [7] = biological target: T2, human serum albumin; experiment: SPR (Biacore), running buffer pH7.0; pH 7
Source text: as §1

human serum albumin [8] = biological target: T2, human serum albumin; experiment: SPR (Biacore), purified construct
human serum albumin [9] = biological target: T2, human serum albumin; experiment: SPR (Biacore), construct captured from HEK293 supernatant, HSA injected
human serum albumin [10] = biological target: T2, human serum albumin; experiment: SPR (Biacore), running buffer pH6.0; pH 6
human serum albumin [11] = biological target: T2, human serum albumin; experiment: SPR (Biacore), purified construct; remark: listed apart in the source
mouse serum albumin [12] = biological target: T3, mouse serum albumin; experiment: SPR (Biacore), purified construct; remark: listed apart in the source
human serum albumin [13] = biological target: T2, human serum albumin; experiment: SPR (Biacore), running buffer pH5.0; pH 5
Source text: as §1

B4: FabB-645dsFv (S3×G4S), Fv heavy mutation Y100cA (bispecific antibody, V domains shown)
VH: EVQLLESGGGLVQPGGSLRLSCAVSGIDLSNYAINWVRQAPGKCLEWIGIIWASGTTFYATWAKGRFTISRDSTTVYLQMNSLRAEDTAVYYCARTVPGYSTAPAFDLWGQGTLVTVSS
VL: DIVMTQSPSSVSASVGDRVTITCQSSPSVWSNFLSWYQQKPGKAPKLLIYEASKLTSGVPSRFKGSGSGTDFTLTISSLQPEDFATYYCGGGYSSISDTTFGCGTKVEIK
Kd (human serum albumin [3]): 87 nM
koff (human serum albumin [3]): 0.00107 s⁻¹
kon (human serum albumin [3]): 12300 M⁻¹ s⁻¹

B5: Antibody 1 (Antibody 645) as humanised IgG (antibody, V domains shown)
VH: B4 VH with C44G, A105Y
VL: B4 VL with C103G
notes: tested as humanised IgG; one grafted VH and one grafted VL were designed for this antibody
Kd (rat serum albumin): 7.9 nM
Kd (human serum albumin [4]): 0.82 nM
Kd (mouse serum albumin [5]): 2.9 nM

B6: Antibody 2 (Antibody 648) as humanised IgG (antibody, V domains shown)
VH: EVQLVESGGGLVQPGGSLRLSCAVSGFSLSRYAMTWVRQAPGKGLEWIGTITTGGNTNYANWAKGRFTISKDSTTVYLQMNSLRAEDTAVYYCARGGYVSYADATELSLWGQGTLVTVSS
VL: DIVMTQSPSTLSASVGDRVTITCQASQSIGSRLAWYQQKPGKAPKLLIYYASTVASGVPSRFKGSGSGTEFTLTISSLQPDDFATYYCQSYDYSSSSSYAFGGGTKVEIK
notes: as for B5
Kd (rat serum albumin): 54 nM
Kd (mouse serum albumin [5]): 23 nM

B7: FabB-didAb, -dAbL1 (CK-G4Sx2) & dAbH1 (CH1-G4Sx2) (bispecific antibody)
heavy: ASTKGPSVFPLAPSSKSTSGGTAALGCLVKDYFPEPVTVSWNSGALTSGVHTFPAVLQSSGLYSLSSVVTVPSSSLGTQTYICNVNHKPSNTKVDKKVEPKSCGGGGSGGGGSEVQLLESGGGLVQPGGSLRLSCAVSGIDLSNYAINWVRQAPGKGLEWIGIIWASGTTFYATWAKGRFTISRDSTTVYLQMNSLRAEDTAVYYCARTVPGYSTAPYFDLWGQGTLVTVSS
light: RTVAAPSVFIFPPSDEQLKSGTASVVCLLNNFYPREAKVQWKVDNALQSGNSQESVTEQDSKDSTYSLSSTLTLSKADYEKHKVYACEVTHQGLSSPVTKSFNRGECGGGGSGGGGSDIVMTQSPSSVSASVGDRVTITCQSSPSVWSNFLSWYQQKPGKAPKLLIYEASKLTSGVPSRFKGSGSGTDFTLTISSLQPEDFATYYCGGGYSSISDTTFGGGTKVEIK
notes: also called FabB-645Fv (G4Sx2); FabB-645Fv (2xG4S)
Kd (human serum albumin [6]): 10.7 nM
Kd (human serum albumin [7]): 13.3 nM
Kd (human serum albumin [8]): 17.5 nM
Kd (mouse serum albumin [2]): 24.7 nM
Kd (human serum albumin [9]): 9 nM
koff (human serum albumin [9]): 0.00016 s⁻¹
kon (human serum albumin [9]): 17800 M⁻¹ s⁻¹
Kd (human serum albumin [10]): 12.5 nM
Kd (human serum albumin [11]): 6.72 nM
Kd (mouse serum albumin [12]): 8.01 nM
Kd (human serum albumin [13]): 7.1 nM

Further lines, results first:

Kd (IL-1β): 0.32 nM
koff (IL-1β): 6.46e-05 s⁻¹
kon (IL-1β): 202000 M⁻¹ s⁻¹
B1: Fab′A (Fab, V domains shown)
VH: EVQLVESGGGLVQPGGSLRLSCAFSGFSLSTSGVGVGWVRQAPGKGLEWVAHIWWDGDESYNPSLKTQFTISKDTSKNTVYLQMNSLRAEDTAVYYCARNRYDPPWFVDWGQGTLVTVSS
VL: DIQMTQSPSSLSASVGDRVTITCRASQDISNYLSWYQQKPGKAPKLLIYYTSKLHSGVPSRFSGSGSGTDYTLTISSLQPEDFATYYCQQGKMLPWTFGQGTKVEIKR

binding result (human serum albumin [1]): no binding
B2: FabA (Fab, V domains shown)
VH: B1 VH
VL: B1 VL

Kd (mouse serum albumin [2]): 42.4 nM
B3: FabB-didAb, -dAbL2 (CK-G4Sx2) & dAbH2 (CH1-G4Sx2) (bispecific antibody)
heavy: ASTKGPSVFPLAPSSKSTSGGTAALGCLVKDYFPEPVTVSWNSGALTSGVHTFPAVLQSSGLYSLSSVVTVPSSSLGTQTYICNVNHKPSNTKVDKKVEPKSCGGGGSGGGGSEVQLVESGGGLVQPGGSLRLSCAVSGFSLSRYAMTWVRQAPGKGLEWIGTITTGGNTNYANWAKGRFTISKDSTTVYLQMNSLRAEDTAVYYCARGGYVSYADATELSLWGQGTLVTVSS
light: RTVAAPSVFIFPPSDEQLKSGTASVVCLLNNFYPREAKVQWKVDNALQSGNSQESVTEQDSKDSTYSLSSTLTLSKADYEKHKVYACEVTHQGLSSPVTKSFNRGECGGGGSGGGGSDIVMTQSPSTLSASVGDRVTITCQASQSIGSRLAWYQQKPGKAPKLLIYYASTVASGVPSRFKGSGSGTEFTLTISSLQPDDFATYYCQSYDYSSSSSYAFGGGTKVEIK
notes: also called FabB-648Fv (G4Sx2); FabB-648Fv (2xG4S)
